Data: PMC3825817 (DNA repair, 2013)

T1: human DNA polymerase δ p125 catalytic subunit (human, UniProt P28340 1-1107)
T1 sequence (looked up): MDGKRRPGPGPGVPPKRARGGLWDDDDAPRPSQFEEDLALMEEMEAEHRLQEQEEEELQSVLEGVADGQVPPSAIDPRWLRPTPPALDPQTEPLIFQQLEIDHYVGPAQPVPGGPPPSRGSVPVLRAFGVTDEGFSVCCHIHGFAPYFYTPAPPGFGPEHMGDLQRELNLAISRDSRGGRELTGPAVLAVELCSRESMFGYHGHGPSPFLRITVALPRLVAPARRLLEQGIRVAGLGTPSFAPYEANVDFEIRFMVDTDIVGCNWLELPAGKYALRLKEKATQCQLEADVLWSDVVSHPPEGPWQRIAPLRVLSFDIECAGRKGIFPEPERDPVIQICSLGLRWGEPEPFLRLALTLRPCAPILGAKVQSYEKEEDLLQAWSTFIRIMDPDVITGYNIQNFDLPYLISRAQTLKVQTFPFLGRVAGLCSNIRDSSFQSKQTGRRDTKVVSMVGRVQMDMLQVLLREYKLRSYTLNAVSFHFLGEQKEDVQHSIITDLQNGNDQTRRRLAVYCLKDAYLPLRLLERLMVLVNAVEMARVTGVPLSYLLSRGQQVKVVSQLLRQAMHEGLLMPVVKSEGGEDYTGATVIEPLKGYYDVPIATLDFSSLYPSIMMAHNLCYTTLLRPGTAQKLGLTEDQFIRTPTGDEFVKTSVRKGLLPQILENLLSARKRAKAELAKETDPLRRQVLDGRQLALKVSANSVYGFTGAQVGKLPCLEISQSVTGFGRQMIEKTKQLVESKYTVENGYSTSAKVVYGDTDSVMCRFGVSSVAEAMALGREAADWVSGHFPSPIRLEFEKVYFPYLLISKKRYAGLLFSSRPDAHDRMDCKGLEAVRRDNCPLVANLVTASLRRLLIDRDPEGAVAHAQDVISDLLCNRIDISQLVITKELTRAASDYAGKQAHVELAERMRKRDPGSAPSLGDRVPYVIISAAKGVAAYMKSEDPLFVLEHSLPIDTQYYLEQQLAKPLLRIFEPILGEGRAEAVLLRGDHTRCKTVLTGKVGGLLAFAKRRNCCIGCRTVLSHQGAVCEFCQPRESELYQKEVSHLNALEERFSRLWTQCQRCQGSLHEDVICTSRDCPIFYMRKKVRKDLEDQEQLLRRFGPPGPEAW

B1: human DNA polymerase δ p50 subunit (natural protein)
chain: not shown
B2: human DNA polymerase δ p12 subunit (natural protein, UniProt Q9HCU8 1-107, looked up)
chain: MGRKRLITDSYPVVKRREGPAGHSKGELAPELGEEPQPRDEEEAELELLRQFDLAWQYGPCTGITRLQRWCRAKQMGLEPPPEVWQVLKTHPGDPRFQCSLWHLYPL
B3: human DNA polymerase δ p68 subunit (natural protein, UniProt Q15054 1-466, looked up)
chain: MADQLYLENIDEFVTDQNKIVTYKWLSYTLGVHVNQAKQMLYDYVERKRKENSGAQLHVTYLVSGSLIQNGHSCHKVAVVREDKLEAVKSKLAVTASIHVYSIQKAMLKDSGPLFNTDYDILKSNLQNCSKFSAIQCAAAVPRAPAESSSSSKKFEQSHLHMSSETQANNELTTNGHGPPASKQVSQQPKGIMGMFASKAAAKTQETNKETKTEAKEVTNASAAGNKAPGKGNMMSNFFGKAAMNKFKVNLDSEQAVKEEKIVEQPTVSVTEPKLATPAGLKKSSKKAEPVKVLQKEKKRGKRVALSDDETKETENMRKKRRRIKLPESDSSEDEVFPDSPGAYEAESPSPPPPPSPPLEPVPKTEPEPPSVKSSSGENKRKRKRVLKSKTYLDGEGCIVTEKVYESESCTDSEEELNMKTSSVHRPPAMTVKKEPREERKGPKKGTAALGKANRQVSITGFFQRK

target: T1, human DNA polymerase δ p125 catalytic …; experiment: immunoaffinity co-purification, SDS-PAGE

Stoichiometry N, ~1:
B1
B2
B3
